Experimental data as given in US20250197488A1 (MABWELL SHANGHAI BIOSCIENCE, published 2025).
Numbering of substitutions follows the chain as printed.

Experiments:
[1] = target: T1, IL-11 (Cat. 12225-HNCE, Sino Biological Inc.) (UniProt P20809 22-199, limits assumed); assay: competition ELISA: IL-11Rα-His coated, IL-11 + antibody + gp130-Fc
T1 sequence (looked up): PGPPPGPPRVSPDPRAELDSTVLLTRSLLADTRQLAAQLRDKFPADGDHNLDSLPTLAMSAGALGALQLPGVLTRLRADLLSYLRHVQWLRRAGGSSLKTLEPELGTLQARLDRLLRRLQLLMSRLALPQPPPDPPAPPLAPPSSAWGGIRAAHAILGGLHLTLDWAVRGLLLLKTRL
Description: (§1) The activity of the recombinant murine anti-IL-11 antibodies for blocking the formation of IL-11/IL-11Rα/GP130 complex was analyzed via competition ELISA. IL-11Rα-His (NP_004503.1, Met1-Val363, C-terminus-6-His Tag) was firstly added into ELISA plates to be coated overnight. Next day, samples were prepared as follows. […] After co-incubating and washing, an HRP conjugated anti-human Fc secondary antibody was added to develop the color which was then detected.

[2] = target: T1, IL-11 (Cat. 12225-HNCE, Sino Biological …); assay: cell-based or functional assay
[3] = target: T2, human IL-11 (AAH12506.1, Pro22-Leu199) (human, UniProt P20809 22-199); assay: BLI (Octet), antibody on AHC probe, human IL-11 in solution
T2 construct: The range Pro22-Leu199 counts on AAH12506.1; The Octet runs say only 'human IL-11'; also called hIL-11
T2 chain: T1 sequence (looked up) with H154L
Description: (§2) When the hybridoma cells were cultured to a certain number, culture supernatants were collected and purified using Protein G affinity chromatography to obtain murine hybridoma antibodies (Hy5C2, Hy8C8, Hy16B5, Hy18A10, Hy18H10, Hy23G6 and Hy29C11). The affinity of the murine antibodies purified from the hybridoma supernatants was determined using an Octet QKe System instrument from Fortebio Inc. with an anti-mouse IgG Fc Capture biosensor to capture the Fc fragments of the antibodies, for which an anti-IL-11 antibody named “3C6-mFc” recombinantly expressed was used at the same concentration as a positive control. Specifically, a hybridoma supernatant was diluted with HBS-EP+ buffer (GE), and was allowed to pass through the surface of AMC probes (Cat: 18-5088, PALL), and so the antibody in the hybridoma supernatant was captured on the surface of the probes; then, human IL-11 diluted in the HBS-EP+ buffer (300 nM) was used as a mobile phase to react with the antibody captured on the surface of the probes. Both the binding and the dissociating were conducted for 300 seconds. When the experiment was finished, data from which response values of blank controls had been deducted was fitted using a 1:1 Langmuir binding model by software, and then kinetic constants for antigen-antibody binding were calculated. Binding signals were detected on the Octet QKe System instrument with Hy5C2, Hy8C8, Hy16B5, Hy18A10, and Hy18H10.
(§3) The affinity of hz18A10 and hz8C8 was determined according to the method provided in Example 1 using AHC bioprobes for capturing human Fc fragment instead, with other conditions unchanged. A recombinantly expressed anti-IL-11 antibody 3C6-hFc was used at the same concentration as a positive control.

[4] = target: T1, IL-11 (Cat. 12225-HNCE, Sino Biological …); assay: competition ELISA, IL-11/IL-11Rα/GP130 complex
Description: as §1
(§4) Then, light and heavy chain expression vectors for preparing mutant antibodies were constructed according to the method for preparing the recombinant antibodies provided in Example 4, using the mutant sequences shown in Table 3 which accordingly were linked with human IgG1 constant regions (SEQ ID NO. 13, and SEQ ID NO.14). Subsequently, the light chain and the heavy chain were reasonably matched and co-transfected into eukaryotic cells for transient expression, and then recombination protein samples of the mutant antibodies were obtained through affinity purification. The samples obtained were tested for affinity on Fortebio Octet, according to the method for measuring affinity provided in Example 1. Further, using the protocol provided in Example 3, hz8C8 and its affinity matured mutants were analyzed for their activity for blocking the formation of IL-11/IL-11Rα/GP130 complex.

[5] = target: T2, human IL-11 (AAH12506.1, Pro22-Leu199); assay: BLI (Octet), antibody captured, human IL-11 in solution
Description: The affinity of the murine antibodies purified from the hybridoma supernatants was determined using an Octet QKe System instrument from Fortebio Inc. with an anti-mouse IgG Fc Capture biosensor to capture the Fc fragments of the antibodies, for which an anti-IL-11 antibody named “3C6-mFc” recombinantly expressed was used at the same concentration as a positive control. Specifically, a hybridoma supernatant was diluted with HBS-EP+ buffer (GE), and was allowed to pass through the surface of AMC probes (Cat: 18-5088, PALL), and so the antibody in the hybridoma supernatant was captured on the surface of the probes; then, human IL-11 diluted in the HBS-EP+ buffer (300 nM) was used as a mobile phase to react with the antibody captured on the surface of the probes. Both the binding and the dissociating were conducted for 300 seconds. When the experiment was finished, data from which response values of blank controls had been deducted was fitted using a 1:1 Langmuir binding model by software, and then kinetic constants for antigen-antibody binding were calculated. Binding signals were detected on the Octet QKe System instrument with Hy5C2, Hy8C8, Hy16B5, Hy18A10, and Hy18H10.
as §3
as §4, with “1.” for “1. Further, using the protocol provided in Example 3, hz8C8 and its affinity matured mutants were analyzed for their activity for blocking the formation of IL-11/IL-11Rα/GP130 complex.”

[6] = target: T2, human IL-11 (AAH12506.1, Pro22-Leu199); assay: BLI (Octet), antibody on AHC probe, human IL-11 in solution
Description: as §2, §3

B1: mu8C8 (antibody, V domains shown)
VH: DVQLVESGGGLVQPGGSRKLSCAASGFTFSSFGMHWVRQSPERGLEWVAYITSGSNTIYYADTVKGRFTISRDNPENTLFLQMTSLRSEDTAMYYCAREYYSYDEGFAYWGQGTLVTVSA
VL: EIVLTQSPTTMAASPGEKITITCSVSSSISSNYLHWYQQKPGFSPKLLIYRTSNLASGVPARFSGSGSGTSHSLTIDTMEAEDVATYYCQQGVDVPFTFGSGTKLEIKR
notes: also called recombinant murine antibody 8C8
B1 gave an IC50 [1] of 1.61 µg/mL.

B2: hz8C8 (antibody, human IgG1, kappa, V domains shown)
VH: EVQLVESGGGLVQPGGSLRLSCAASGFTFSSFGMHWVRQAPGKGLEWVAYITSGSNTIYYADTVKGRFTISRDNAKNSLYLQMNSLRAEDTAVYYCAREYYSYDEGFAYWGQGTLVTVSS
VL: EIVLTQSPATLSLSPGERATLSCSVSSSISSNYLHWYQQKPGQAPRLLIYRTSNLASGIPARFSGSGSGTDFTLTISSLEPEDFAVYYCQQGVDVPFTFGQGTKLEIKR
notes: humanized, human constant regions; also called hz8C8-VH + hz8C8-VL; parent antibody hz8C8
In the case of B2, the “Blocking activity (IC50), STAT3-luc reporter” value (“Blocking activity (IC50)” for short) [2] is reported as 2.04 µg/mL, the Kd [3] is reported as 1600 pM and the koff [3] is reported as 0.00134 s⁻¹. For the same binder, the kon [3] was 836000 M⁻¹ s⁻¹ and the IC50 [4] was 2.56 µg/mL.

B3: hz8C8-VHm1-m8 + hz8C8-VLm7-m2 (antibody, human IgG1, kappa, V domains shown)
VH: B2 VH with V48I, A49G, S53P
VL: B2 VL with S27D, S28L, S30P, N32Q, R51D, T52A
notes: human IgG1 constant regions
B3 was tested, and the Kd [5] was less than 1 pM, the koff [5] was less than 1e-07 s⁻¹ and the kon [5] was 847000 M⁻¹ s⁻¹. For the same binder, the “Blocking activity (IC50)” value [2] was 0.003 µg/mL and the IC50 [4] was 0.57 µg/mL.

B4: hz8C8-VHm4 + hz8C8-VL (antibody, human IgG1, kappa, V domains shown)
VH: B2 VH with S55A
VL: B2 VL
notes: human IgG1 constant regions
In the case of B4, the Kd [5] is reported as 1370 pM, the koff [5] is reported as 0.0012 s⁻¹ and the kon [5] is reported as 878000 M⁻¹ s⁻¹. For the same binder, the “Blocking activity (IC50)” value [2] was 1.54 µg/mL and the IC50 [4] was 1.01 µg/mL.

B5: hz8C8-VHm1-m10 + hz8C8-VLm7-m2 (antibody, human IgG1, kappa, V domains shown)
VH: B2 VH with S53P, Y103S
VL: B2 VL with S27D, S28L, S30P, N32Q, R51D, T52A
notes: human IgG1 constant regions
Binder B5 has a Kd [5] of 1390 pM, a koff [5] of 0.000305 s⁻¹ and a kon [5] of 219000 M⁻¹ s⁻¹. For the same binder, the “Blocking activity (IC50)” value [2] was 0.008 µg/mL and the IC50 [4] was 1.57 µg/mL.

B6: hz8C8-VHm6 + hz8C8-VLm7 (antibody, human IgG1, kappa, V domains shown)
VH: B2 VH with S53P, N56S
VL: B2 VL with S27D, S28L, S30P, N32Q
notes: human IgG1 constant regions
B6 showed a Kd [5] of 156 pM, a koff [5] of 0.000127 s⁻¹ and a kon [5] of 812000 M⁻¹ s⁻¹. The “Blocking activity (IC50)” value [2] was 0.066 µg/mL and the IC50 [4] was 0.54 µg/mL.

B7: hz8C8-VHm1-m9 + hz8C8-VLm7-m2 (antibody, human IgG1, kappa, V domains shown)
VH: B2 VH with V48M, A49G, S53P
VL: B2 VL with S27D, S28L, S30P, N32Q, R51D, T52A
notes: human IgG1 constant regions
With B7 the Kd [5] was 23.9 pM, the koff [5] was 2.14e-05 s⁻¹ and the kon [5] was 897000 M⁻¹ s⁻¹. The “Blocking activity (IC50)” value [2] was 0.002 µg/mL and the IC50 [4] was 0.77 µg/mL.

B8: hz8C8-VHm1-m11 + hz8C8-VLm7-m2 (antibody, human IgG1, kappa, V domains shown)
VH: B2 VH with S53P, F107P
VL: B2 VL with S27D, S28L, S30P, N32Q, R51D, T52A
notes: human IgG1 constant regions
B8 showed a Kd [5] of 1300 pM, a koff [5] of 0.001 s⁻¹ and a kon [5] of 771000 M⁻¹ s⁻¹. The “Blocking activity (IC50)” value [2] was 0.01 µg/mL and the IC50 [4] was 1.7 µg/mL.

B9: hz8C8-VHm5 + hz8C8-VLm7 (antibody, human IgG1, kappa, V domains shown)
VH: B2 VH with H35S, S53P
VL: B2 VL with S27D, S28L, S30P, N32Q
notes: human IgG1 constant regions
B9 was tested, and the Kd [5] was 190 pM, the koff [5] was 0.000175 s⁻¹ and the kon [5] was 920000 M⁻¹ s⁻¹. The “Blocking activity (IC50)” value [2] was 0.01 µg/mL and the IC50 [4] was 0.65 µg/mL.

B10: hz8C8-VHm3 + hz8C8-VL (antibody, human IgG1, kappa, V domains shown)
VH: B2 VH with S53P, I58T
VL: B2 VL
notes: human IgG1 constant regions
With B10 the Kd [5] was 4770 pM, the koff [5] was 0.00216 s⁻¹ and the kon [5] was 453000 M⁻¹ s⁻¹. For the same binder, the “Blocking activity (IC50)” value [2] was 0.946 µg/mL and the IC50 [4] was 0.828 µg/mL.

B11: hz8C8-VHm1-m12 + hz8C8-VLm7-m2 (antibody, human IgG1, kappa, V domains shown)
VH: B2 VH with S53P, F107G
VL: B2 VL with S27D, S28L, S30P, N32Q, R51D, T52A
notes: human IgG1 constant regions
With B11 the Kd [5] was 7950 pM, the koff [5] was 0.00139 s⁻¹ and the kon [5] was 175000 M⁻¹ s⁻¹. For the same binder, the “Blocking activity (IC50)” value [2] was 0.012 µg/mL and the IC50 [4] was 1.54 µg/mL.

B12: hz8C8-VHm1-m13 + hz8C8-VLm7-m2 (antibody, human IgG1, kappa, V domains shown)
VH: B2 VH with S53P, Y109S
VL: B2 VL with S27D, S28L, S30P, N32Q, R51D, T52A
notes: human IgG1 constant regions
B12 showed a Kd [5] of 57.3 pM, a koff [5] of 4.32e-05 s⁻¹ and a kon [5] of 753000 M⁻¹ s⁻¹. The “Blocking activity (IC50)” value [2] was 0.008 µg/mL and the IC50 [4] was 0.54 µg/mL.

B13: hz8C8-VHm2 + hz8C8-VL (antibody, human IgG1, kappa, V domains shown)
VH: B2 VH with S53A
VL: B2 VL
notes: human IgG1 constant regions
B13 was tested, and the Kd [5] was 727 pM, the koff [5] was 0.000586 s⁻¹ and the kon [5] was 806000 M⁻¹ s⁻¹. The “Blocking activity (IC50)” value [2] was 0.51 µg/mL and the IC50 [4] was 0.694 µg/mL.

B14: 3C6-hFc (antibody, human IgG1, kappa)
heavy: not shown
light: DIVLTQSPASLALSPGERATLSCRASKSVSTSGYSYIHWYQQKPGQAPRLLIYLASNLDSGVPARFSGSGSGTDFTLTISSLEEEDFATYYCQHSRDLPPTFGQGTKLEIKRTVAAPSVFIFPPSDEQLKSGTASVVCLLNNFYPREAKVQWKVDNALQSGNSQESVTEQDSKDSTYSLSSTLTLSKADYEKHKVYACEVTHQGLSSPVTKSFNRGEC
notes: human IgG1 constant regions; also called positive control antibody; hz3C6
With B14 the Kd [6] was 712 pM, the koff [6] was 0.000581 s⁻¹ and the kon [6] was 816000 M⁻¹ s⁻¹. For the same binder, the “Blocking activity (IC50)” value [2] was 0.342 µg/mL, the Kd [3] was 712 pM and the koff [3] was 0.000581 s⁻¹. The kon [3] was 816000 M⁻¹ s⁻¹ and the IC50 [4] was 1.9 µg/mL.

B15: hz18A10 (antibody, human IgG1, kappa, V domains shown)
VH: EVQLVQSGAEVKKPGASVKVSCKASGYTFTTYNMDWVRQAPGQGLEWMGTIYPGNGDTSYNQKFKGRVTMTRDTSTSTVYMELSSLRSEDTAVYYCARGDLYALDYWGQGTLVTVSS
VL: DIQMTQSPSSLSASVGDRVTITCKASQSVSNDVAWYQQKPGKAPKLLIYSASNRYTGVPSRFSGSGSGTDFTFTISSLQPEDIATYYCQHDYSSPYTFGQGTKLEIKR
notes: humanized, human constant regions; also called hz18A10-VH + hz18A10-VL; parent antibody hz18A10
Binder B15 has a Kd [6] of 3210 pM, a koff [6] of 0.00249 s⁻¹ and a kon [6] of 773000 M⁻¹ s⁻¹. For the same binder, the “Blocking activity (IC50)” value [2] was 18.5 µg/mL.
